Measured values reported in the supplement of paper PMC10567573.

B1: KRT33B (parent)
chain: PAVDLNQVLNETRNQYEALVETNR

Variants of: B1
Test: protein stability index of a GFP-peptide fusion (GPS, HEK-293T) (PSI 1-6); higher = more stable
Details: c terminus: a fixed tail appended
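Further: lentivirally expressed fusions sorted by FACS into six bins by GFP to DsRed ratio, PSI derived from sequencing read proportions per bin multiplied by bin number.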

Protein stability index: each site, then its substitutions
V3: W 4.12 | Y 3.56 | Q 3.29 | E 4.05 | C 2.81 | D 4.77 | A 3.85 | T 3.87 | I 3.77 | H 4.33 | R 3.4 | M 2.7 | N 4.25
A18: T 3.67 | G 4.48 | Y 3.96 | C 3.83 | I 3.55 | F 3.48 | H 4.09 | Q 2.96 | M 3.55 | S 3.71 | P 4.28 | K 2.69 | W 3.72 | R 2.53
E21: G 4.22 | K 4.2 | W 2.89 | N 4.14 | M 3.67 | A 3.85 | L 3.37 | T 4.06 | V 3.54 | Y 3.23 | H 4.19
L19: D 5.42 | H 4.57 | N 4.87 | E 5.19 | P 4.97 | R 4.29 | F 4.11 | A 5.03 | G 4.91 | Q 5.1 | W 4.25 | I 4.11 | K 4.95 | M 3.89 | S 5.03 | T 4.7
R24: C 2.43 | W 3.46 | K 3.97 | A 4 | G 4.72 | T 3.87 | S 4.15 | H 4.24 | L 2.54 | F 3 | E 4.13 | Y 2.83 | P 4.94 | D 5.15 | V 1.45 | Q 4.16 | M 2.16
A2: P 3.14 | K 3.87 | I 2.84 | F 2.39 | Y 2.02 | E 2.26 | D 4.82 | C 2.87 | V 3.11 | L 3.25 | G 3.95
R13: F 4.15 | Q 4.32 | K 3.03 | P 5.18 | G 4.35 | A 4.35 | D 4.93 | N 5.01 | V 4.15 | E 4.86 | M 3.12 | W 3.92 | Y 3.69 | S 4.8 | T 4.59
L5: K 4.79 | C 3.97 | F 3.38 | R 4.4 | Y 3.44 | E 4.53 | Q 4.78 | S 4.78 | T 4.48 | M 4 | G 5.15 | W 2.52 | D 4.64 | H 3.83
Q15: K 4.06 | D 4.33 | F 2.72 | N 4.38 | C 3.87 | M 1.6 | P 4.39 | T 4.22 | G 4.45 | E 4.61 | I 3.44 | H 3.95
Q7: W 4.22 | H 4.38 | C 3.57 | G 4.59 | F 3.79 | I 3.55 | V 3.86 | D 3.73 | A 3.27 | R 3.95 | P 4.78 | L 4.06 | K 3.91 | S 4.01 | T 2.97
N10: V 3.22 | A 2.98 | Q 2.58 | W 2.37 | I 2.64 | T 2.67 | F 2.44 | R 2.76 | G 4.34 | E 2.09 | P 4.84 | H 3.74 | D 3.3 | Y 2.47
D4: E 3.86 | F 2.82 | Q 4.31 | H 4.22 | S 2.74 | N 4.46 | A 3.94 | L 3.55 | M 4.15 | I 3.41 | C 3.88 | K 4
T12: E 4.5 | D 4.61 | A 2.16 | R 4.89 | W 3.09 | Q 2.85 | N 4.11 | C 3.24 | I 2.41 | S 3.8 | Y 2.77 | P 4.52 | H 2.84
N23: Q 4.43 | P 4.54 | L 3.06 | R 4.31 | D 5.06 | K 4.54 | G 4.07 | W 3.36 | H 4.35 | F 2.58 | I 3.24 | Y 3.71 | E 4.51 | C 4.03 | S 4.25 | T 4.46 | M 3.29
V8: C 3.71 | L 1.45 | Y 2.49 | S 4.43 | F 3.78 | N 4.83 | E 4.7 | A 3.84 | T 4.41 | P 5.14 | M 2.66 | Q 4.64 | I 2.98 | W 3.42
L9: C 4.91 | G 4.76 | H 4.2 | D 4.52 | F 4.25 | M 4.13 | A 5.16 | N 5.13 | I 3.55 | T 4.61 | R 4.36 | Y 4.53 | K 5.09 | E 4.93 | Q 4.24
P1: A 3.25 | E 2.98 | I 2.69 | D 4.32 | F 2.78 | G 4.39 | Q 3.26 | V 3.15 | S 4.42 | H 4.02 | Y 3.33 | W 3.26
E11: T 4.1 | P 4.27 | S 3.62 | C 4.3 | I 3.97 | K 3.85 | M 3.31 | W 3.38 | Q 4.29 | H 4.13 | A 3.63
E17: H 3.9 | F 2.9 | S 4.24 | Q 4.4 | N 3.61 | W 3.54 | G 3.91 | I 3.13 | L 3.73 | Y 3.09 | D 4.23 | K 3.48 | T 3.62 | V 3.71 | R 3.96
T22: D 4.8 | Y 4.57 | G 4.73 | F 3.61 | Q 3.94 | R 4.02 | V 1.57 | M 3.33 | W 3.88 | P 4.65 | S 4.43 | E 4.05 | K 3.7
N14: G 3.32 | F 3.54 | Y 3.42 | T 3.21 | P 4.43 | K 2.63 | W 2.55 | Q 2.57 | S 3.04 | M 2.05 | A 2.25 | R 2.81 | L 2.07 | E 2.68
Y16: R 5.09 | S 5.12 | G 5.21 | I 4.17 | V 4.92 | M 4.39 | F 3.5 | C 4.57 | W 3.89 | K 4.8 | Q 5.29 | L 4.37 | D 4.98 | H 5.02 | P 5.06 | A 5.14
V20: K 4.24 | Y 4.22 | A 2.74 | G 4.49 | D 5.39 | H 4.92 | I 4.39 | Q 4.94 | E 3.52 | C 4.06 | W 3.62 | L 3.88 | P 4.34 | F 4.09 | N 4.45 | R 4.43
N6: V 2.43 | Y 2.64 | W 1.82 | H 2.97 | E 1.97 | R 3.13 | T 3.43 | C 2.56 | K 3.27 | A 2.77 | Q 2.83 | D 2.8 | M 1.34 | I 2.05
